For this experiment, the target named is human CD40 on cells (293.CD40 cells, Namalwa cells, human monocyte-derived dendritic cells) (human) (UniProt P25942). The experiment is described as follows: cell-based or functional assay.

The results in this text go back to patent US20050003548A1.

Chain of UniProt P25942 (P25942 21-277): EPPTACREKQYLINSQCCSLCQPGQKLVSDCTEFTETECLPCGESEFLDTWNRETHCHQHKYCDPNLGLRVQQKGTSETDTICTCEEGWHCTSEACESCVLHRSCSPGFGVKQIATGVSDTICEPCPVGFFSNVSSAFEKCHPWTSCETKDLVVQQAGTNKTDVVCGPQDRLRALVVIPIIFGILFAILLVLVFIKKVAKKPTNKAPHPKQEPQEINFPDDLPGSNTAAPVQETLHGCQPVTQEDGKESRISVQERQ

“Fc-CD40L (TNF-like domain of human CD40 Ligand fused to the hinge region of the Fc domain of human IgG gamma 1) (from UniProt P29965 116-261) (Fc fusion)” came in with a reporter gene delivery to human monocyte-derived dendritic cells by Ad5.DR-LL-Cd complexed with the ligand, fold over Ad5.DR of 28 to 35 fold. In the case of “Fc-G28.5 (fusion of anti-CD40 single chain antibody G28.5 with the Fc domain of human immunoglobulin and a six-histidine sequence) (Fc fusion)”, the reporter gene delivery to human monocyte-derived dendritic cells by Ad5.DR-LL-Cd complexed with the ligand, fold over Ad5.DR fell in the range of 28 to 35 fold.
